Reference: the supplement of paper PMC10567573

B1: KRT34 (parent)
chain: YQSYFKTIEELQQKILCAKAENAR
B2: PDZK1 (parent)
chain: QKEQGLSDNILSPVMNGGVQTWTQ

Variants of: B1
Assay: protein stability index of a GFP-peptide fusion (GPS, HEK-293T) (PSI 1-6); higher = more stable
Conditions: c terminus: a fixed tail appended
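Note: lentivirally expressed fusions sorted by FACS into six bins by GFP to DsRed ratio, PSI derived from sequencing read proportions per bin multiplied by bin number.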

Protein stability index, by site and new letter:
C17: K 2.51 | G 2.32 | S 2.19 | E 2.39 | P 2.25 | H 2.06 | N 1.88 | Q 2.56 | R 2.42 | D 1.84 | M 2.11 | Y 2.15 | T 2.04 | W 2.94 | L 2.6 | A 2.56 | F 1.97 | I 2.16 | V 1.37
A23: F 2.72 | M 1.88 | Y 1.87 | I 1.65 | D 2.08 | N 1.55 | C 1.39 | V 1.32 | R 2.06 | G 1.96 | T 1.64 | K 2.17 | H 2.93 | S 2.05 | L 2.01 | P 2.38 | E 2.71 | Q 2.17
R24: N 2.25 | W 2.32 | I 2.17 | Y 2.6 | P 1.57 | T 1.64 | S 1.74 | A 1.52 | M 1.02 | G 1.16 | Q 3.56 | E 1.32 | L 1.77 | D 1.16 | H 2.2 | F 1.91 | V 2.78 | K 1.93 | C 1.59
Q12: Y 1.77 | S 1.77 | V 1.55 | N 1.65 | E 1.48 | T 2.21 | F 2.02 | H 2.34 | C 1.78 | L 1.9 | D 1.69 | K 2 | I 3.66 | P 1.4 | R 2.63 | G 1.97 | A 1.6 | M 2.15
A18: H 1.53 | F 2.75 | D 2.16 | E 1.45 | G 1.78 | V 1.88 | L 2.04 | I 2.04 | P 2.21 | T 2.1 | W 2.73 | N 2.07 | Y 2.16 | C 2.5 | R 1.68 | K 1.99 | Q 1.83
L11: G 2.58 | A 1.79 | V 1.35 | Y 2.08 | S 1.2 | P 2.3 | Q 1.98 | K 2.34 | W 1.93 | T 1.62 | H 1.55 | F 1.4 | D 1.5 | N 2.41 | R 1.83 | M 1.81 | I 2.13 | C 2.56 | E 1.88
I15: R 1.66 | W 2.2 | C 1.16 | Q 1.71 | S 1.81 | F 1.6 | G 1.45 | N 2.23 | P 1.71 | M 1.89 | Y 2.25 | D 1.88 | E 2.03 | T 1.57 | L 1.95 | K 2.71 | H 1.87
E10: G 1.7 | P 1.93 | Y 2.74 | S 1.83 | W 1.72 | K 1.81 | T 1.27 | V 2.04 | M 2 | N 2.19 | F 2.41 | Q 1.19 | I 1.96 | C 1.44 | R 2.49 | D 1.61 | L 1.91 | A 1.95 | H 1.69
K14: P 1.97 | I 1.52 | L 2.62 | F 2 | D 1.23 | Q 2.14 | G 1.69 | T 1.56 | A 1.41 | Y 1.46 | R 1.77 | S 2.27 | M 1.46 | C 1.2 | N 1.53 | V 1.98 | W 3.3 | E 2.61 | H 1.99
N22: H 1.81 | L 2.26 | E 1.89 | S 2.46 | K 2.22 | D 2.54 | P 1.89 | T 2.4 | M 1.59 | A 1.69 | R 1.43 | C 2.04 | Y 1.59 | G 1.36 | F 2.17 | Q 2.09
E9: I 2 | Q 1.9 | L 1.53 | K 2.2 | R 1.75 | H 2.46 | T 1.84 | P 1.29 | N 2.45 | V 3.47 | G 1.64 | Y 1.64 | M 3.64 | S 1.99 | W 2.23
Q13: M 1.82 | E 2.2 | S 1.52 | H 2.29 | C 1.82 | G 1.96 | R 2.16 | I 1.5 | V 1.96 | L 1.46 | P 1.78 | T 1.74 | F 2.05 | Y 1.54 | K 1.95 | N 1.92 | A 2.02 | D 2.26
A20: L 2.34 | T 1.87 | N 1.71 | H 2.06 | D 2.18 | W 1.46 | Y 1.3 | E 2.14 | M 2.57 | R 1.88 | C 2.01 | K 2.16 | Q 1.78 | P 1.79 | F 1.4 | I 1.86 | V 1.71
E21: L 2.17 | F 1.17 | D 1.74 | A 2.93 | P 2.14 | T 2.05 | S 1.96 | C 2.38 | G 1.03 | R 2.12 | Q 1.89 | Y 1.27 | M 1.26 | V 2.42 | K 1.99 | I 1.29 | H 2.24 | N 1.69
K19: D 2.48 | P 2.15 | C 1.78 | G 1.92 | S 1.9 | R 1.91 | N 1.83 | H 1.64 | M 2.51 | T 1.39 | E 1.99 | I 2.39 | F 1.74 | Y 1.35 | A 1.87 | W 2.29 | Q 2.62 | L 2.93
L16: P 1.41 | M 1.89 | N 1.75 | T 1.72 | A 1.8 | I 1.67 | F 1.6 | E 2.63 | H 2.12 | G 2.02 | K 1.92 | Q 1.66 | W 1.29 | D 1.96 | R 2.02 | Y 2.28 | S 1.97 | C 1.84

Variants of: B2
Assay: as above
Conditions: c terminus: a fixed tail appended

Protein stability index, by site and new letter:
E3: F 1.67 | T 2.88 | R 1.52 | A 3.02 | P 2.93 | I 2.67 | S 2.02 | L 2.12 | K 4.26 | V 2.05 | Q 2.18 | H 2.24 | G 1.82 | D 3.51 | M 2.61 | C 2.05
K2: F 2.26 | C 3.57 | S 3.13 | Q 3.15 | R 3.05 | E 3.35 | T 3.26 | Y 3.24 | G 2.76 | N 2.88 | P 2.67 | I 2.42 | H 2.81 | D 3.23 | M 2.51
Q1: S 2.1 | D 3.37 | N 2.75 | E 3.26 | K 2.58 | T 2.7 | W 1.94 | V 1.96 | G 2.15 | R 2.02 | P 3.23 | Y 2.47 | I 2.12 | L 2.41 | M 2.98 | C 1.91 | A 2.61 | F 1.97
